Measured values as given in patent publication US20200239586A1 (LA TROBE UNIVERSITY, published 2020).

T1: human Fn14 (human, UniProt Q9NP84 28-129)
T1 sequence: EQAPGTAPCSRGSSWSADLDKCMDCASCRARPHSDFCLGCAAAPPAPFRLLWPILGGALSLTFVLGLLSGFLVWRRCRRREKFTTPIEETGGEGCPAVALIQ

T2: synthetic peptide Sub-domain 2 Cys 3&6 ΔS (human, not fully specified; biotin on the added C-terminal lysine)
T2 construct: also called sub-domain 2 cys3&6ΔS mutant
T2 peptide: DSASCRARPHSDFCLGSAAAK


Columns and labels:
[1] = target: T1, human Fn14; experiment: cell-based or functional assay
[2] = target: phage expressed hFn14 mutant P59A (human, UniProt Q9NP84 28-77); experiment: phage ELISA (Method 2), antibody on plate, phage dilution 1/X on the x axis
Description: (§1) For mutants P59A and F63A, binding was detected using HRP-conjugated anti-M13-phage polyclonal IgG and TMB substrate. For all other mutants binding was detected using Biotin-conjugated anti-M13-phage monoclonal antibody followed by HRP-conjugated Streptavidin and TMB substrate. Optical density at 450 nm was quantified using a Spectramax spectrophotometer. Error bars for each dilution represent the standard deviation of duplicate assays. FIG. 27A wild type Fn14, FIG. 27B W42A, FIG. 27C S54A, FIG. 27D A57G, FIG. 27E P59A, FIG. 27F S61A, FIG. 27G F63A, FIG. 27H L65A. In all cases error bars represent the standard deviation. X axis=dilution of phage. Methods according to Epitope mapping using phage expressed Fn14—Method 2
(§2) The wells of Maxisorp immunoplates (Nunc) were coated overnight at 4° C. with the target monoclonal antibodies or recombinant Tweak-Fc at a concentration of 1.5 μg/ml in PBS. mAb 5G8 was used as a negative control for ELISA plates coated with tested antibodies. […] 10-fold serial dilutions of phage were made using PBS solution and phage dilutions were added to the coated, blocked ELISA plates for 1 hour, shaking at room temperature. Phage was subsequently removed from the wells and the ELISA plates were washed three times with PBS/0.05% Tween 20.
(§3) Method A: HRP-conjugated anti-M13-phage antibody (GE Healthcare) at a 1/5000 dilution in PBS was then added to the wells of the ELISA plates for 1 hour, shaking at room temperature. The antibody solution was then removed from the wells and the ELISA plates were washed four times with PBS/0.05% Tween 20. Method B: Biotin-conjugated anti-M13-phage antibody (GE Healthcare) diluted in PBS was then added to the wells of the ELISA plates for 1 hour shaking at room temperature. The antibody solution was then removed from the wells and the ELISA plates were washed three times with PBS/0.05% Tween 20. HRP-conjugated Streptavidin diluted in PBS was then added to the wells of the ELISA plates for 1 hour, shaking at room temperature. The solution was then removed from the wells and the ELISA plates were washed three times with PBS/0.05% Tween 20. ELISAs were developed using TMB substrate and the reaction was stopped using 2 M […] solution.

[3] = target: phage expressed hFn14 mutant W42A (human, UniProt Q9NP84 28-77); experiment: as above
Description: as §1, §2, §3

[4] = target: phage expressed hFn14 mutant A57G (human, UniProt Q9NP84 28-77); experiment: as above
Description: as §1, §2, §3

[5] = target: T2, synthetic peptide Sub-domain 2 Cys 3&6 …; experiment: peptide ELISA: biotinylated synthetic peptide on neutravidin plate, antibody titrated (legend: 0.1-0.0001 µg/ml; axis 'Log (c)'), anti-mouse HRP, TMB, OD 450 nm
[6] = target: phage expressed hFn14 mutant L46A (human, UniProt Q9NP84 28-77); experiment: phage ELISA (Method 2): antibody coated on the plate, 10-fold dilutions of phage displaying hFn14 L46A; biotin anti-M13 antibody, streptavidin-HRP, TMB, OD 450 nm; x axis = dilution of phage
Description: ELISAs showing the reactivity of mutant hFn14 phage constructs with the anti-Fn14 monoclonal antibodies CRCBT-06-001, CRCBT-06-002, CRCBT-06-004 compared to ITEM-1 and ITEM-4. Binding was detected using Biotin-conjugated anti-M13-phage monoclonal antibody followed by HRP-conjugated Streptavidin and TMB substrate. Optical density at 450 nm was quantified using a Spectramax spectrophotometer. Error bars for each dilution represent the standard deviation of duplicate assays. FIG. 28A L46A, FIG. 28B D51A and FIG. 28C D62A. In all cases error bars represent the standard deviation. X axis=dilution of phage. Methods according to Epitope mapping using phage expressed Fn14—Method 2.
as §2, with “Phage was subsequently removed from the wells and the ELISA plates were washed three times with PBS/0.05% Tween 20.” left out
Method A: HRP-conjugated anti-M13-phage antibody (GE Healthcare) at a 1/5000 dilution in PBS was then added to the wells of the ELISA plates for 1 hour, shaking at room temperature. […] Optical density at 450 nm was quantified using a Spectramax absorbance spectrophotometer.

Chain of phage expressed hFn14 mutant P59A (Q9NP84 28-77 P59A): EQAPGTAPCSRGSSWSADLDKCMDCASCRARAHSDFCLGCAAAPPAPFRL
Chain of phage expressed hFn14 mutant L46A (Q9NP84 28-77 L46A): as the sequence (Q9NP84 28-77 P59A) above, with L19A, A32P counted along it
Chain of phage expressed hFn14 mutant A57G (Q9NP84 28-77 A57G): as the sequence (Q9NP84 28-77 P59A) above, with A30G, A32P counted along it
Chain of phage expressed hFn14 mutant W42A (Q9NP84 28-77 W42A): as the sequence (Q9NP84 28-77 P59A) above, with W15A, A32P counted along it

Row | Binder | NFκB-GFP reporter in HEK293T cells [1] | binding result [2] | binding result [3] | binding result [4] | binding result [5] | binding result [6]
1 | CRCBT-06-001 (antibody, IgG2b, V domains shown) VH: QVQLQQSGGGLVQPGGSMKLSCIASGFTFSSYWMSWVRQSPEKGLEWVAEIRSKSDNYATHYAESVKGKFTISRDDSKSRFFLQMNNLRAEDTGIYYCSSTYADYFHYWGQGTDLTVSS VL: DIVMTQTPASLAVSLGQRATISCRASQSVSTSTYSYMHWYQQKPGQPPKLLIKYASSLESGVPARFSGSGSGTDFTLNIHPVEEDDTATYYCQHSWEIPYTFGGGTKLEIKR | 1 µg/mL | binds | binds | binds | binds | binds
2 | CRCBT-06-002 (antibody, IgG1, V domains shown) VH: EVKLQQSGGGLVQPGGSMKLSCVASGFTFSYYWMNWVRQSPEQGLEWIAEIRLQSNDYPTHYAESVKGRFTISRDDSKNSVYLQMNNLRPEDTGIYYCACRYADYFDHWGQGTTLTVSS VL: DTVLTQSPASLVVSLGQRATISCRASQSVSTSDYSYIHWYQQKPGQPPKFLIKYASNRDSGVPARFSGSGSGTDFTLNIHPVEEDDTAIYYCQHSWEIPPTFGAGTKLELQR | 0.1 µg/mL | binds | binds | binds | binds | binds
